Measurements: patent publication US20040203128

Key:
[1] = system: GST-2E11 recombinant protein (fusion between a KCNQ2-15b polypeptide comprising exons 13, 14 and 15b and GST)
[2] = system: GST protein (negative control, from pGEX2TK) [GST: P08515]
Chain of GST protein (negative control, from pGEX2TK) [GST: P08515] (P08515 whole entry): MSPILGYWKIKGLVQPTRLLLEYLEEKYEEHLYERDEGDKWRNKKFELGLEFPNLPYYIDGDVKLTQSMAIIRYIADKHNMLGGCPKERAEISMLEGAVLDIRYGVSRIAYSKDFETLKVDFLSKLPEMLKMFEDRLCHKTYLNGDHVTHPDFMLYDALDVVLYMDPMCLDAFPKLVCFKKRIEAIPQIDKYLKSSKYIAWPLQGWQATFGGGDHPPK

Chain of GST-2E11 recombinant protein (fusion between a KCNQ2-15b polypeptide comprising exons 13, 14 and 15b and GST) (chain, as listed by the source): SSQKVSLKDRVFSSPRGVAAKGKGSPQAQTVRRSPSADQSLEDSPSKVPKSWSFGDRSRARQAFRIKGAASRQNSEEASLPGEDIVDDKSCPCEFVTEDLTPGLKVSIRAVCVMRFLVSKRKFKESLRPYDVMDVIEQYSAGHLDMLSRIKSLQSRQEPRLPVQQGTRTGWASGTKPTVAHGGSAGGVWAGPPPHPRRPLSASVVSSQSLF

Substance | in vitro dephosphorylation, loss of the 32P band, with or without okadaic acid [1] | in vitro phosphorylation, 32P autoradiography after SDS-PAGE [1] | in vitro phosphorylation, 32P autoradiography after SDS-PAGE [2]
PP2A phosphatase in whole cell extracts of the human glioblastoma, astrocytoma cell line HTB-14 | In the line loaded with GST-2E11 fusion proteins incubated in the presence of HTB-14 cell extracts, the band had an extremely weaker intensity |  | 
Protein Kinase A Catalytic Subunit (PKA from bovine heart, Sigma) |  | Thus the GST-2E11 protein is phosphorylated by GSK-3β and PKA in vitro | No bands appeared in the three lines corresponding to the negative controls
recombinant GSK-3β kinase (New England Biolabs) |  | Thus the GST-2E11 protein is phosphorylated by GSK-3β and PKA in vitro | No bands appeared in the three lines corresponding to the negative controls
